Test results reported in publication PMC11352367 (Cells, 2024).

Target: the molecule itself
Assay: high-speed atomic force microscopy; α-actinin alone (50 nM) on bare mica, observation buffer, room temperature

B1: Rabbit skeletal muscle-derived α-actinin (natural protein)
chain: MNQIEPGVQYNYVYDEDEYMIQEEEWDRDLLLDPAWEKQQRKTFTAWCNSHLRKAGTQIENIEEDFRNGLKLMLLLEVISGERLPKPDRGKMRFHKIANVNKALDYIASKGVKLVSIGAEEIVDGNVKMTLGMIWTIILRFAIQDISVEETSAKEGLLLWCQRKTAPYRNVNIQNFHTSWKDGLGLCALIHRHRPDLIDYSKLNKDDPIGNINLAMEIAEKHLDIPKMLDAEDIVNTPKPDERAIMTYVSCFYHAFAGAEQAETAANRICKVLAVNQENERLMEEYERLASELLEWIRRTIPWLENRTPEKTMKAMQKKLEDFRDYRRKHKPPKVQEKCQLEINFNTLQTKLRISNRPAFMPSEGKMVSDAGAWQRLEQAEKGYEEWLLNEIRRLERLEHLAEKFRQKASTHETWAYGKEQILLQKDYESASLTEVRALLRKHEAFESDLAAHQDRVEQIAAIAQELNELDYHDAVNVNDRCQKICDQWDRLGTLTQKRREALERTEKLLETIDQLHLEFAKRAAPFNNWMEGAMEDLQDMFIVHSIEEIQSLITAHEQFKATLPEADGERQSIMAIQNEVEKVIQSYNIRISSSNPYSTVTMDELRAKWDKVKQLVPIRDQSLQEELARQHANERLRRQFAAQANAIGPWIQNKMEEIARSSIQITGALEDQMNQLKQYEHNIINYKNNIDKLEGDHQLIQEALVFDNKHTNYTMEHIRVGWELLLTTIARTINEVETQILTRDAKGITQEQMNEFRASFNHFDRRKNGLMDHEDFRACLISMGYDLGEAEFARIMTLVDPNGQGTVTFQSFIDFMTRETADTDTAEQVIASFRILASDKPYILAEELRRELPPDQAQYCIKRMPAYSGPGSVPGALDYTAFSSALYGESDL
stoichiometry N: 2
